Source: patent publication US20090221680, “Aptamers that bind thrombin with high affinity” (published 2009)
Where a chain is given by its changes, count along the chain named.

B1: AMX(399)_G5 (ssDNA)
DNA: TCCCGGTATCGTCATGCTGGTGGAATTGGTTGGGTGGCTGAGGATCGATC
B2: AMX(399)_F10 (ssDNA)
DNA: TCCCGTCGGTCCGTTCGGTATTTTTTTCTGGGTGGCTGAGGATCGATC
B3: AMX(398)_D7 (ssDNA)
DNA: TCCCTTGTCGATTCTGGTATGTTTTGGTCCGGGTGGCTGAGGATCGATC
B4: AMX(398)_A6 (ssDNA)
DNA: TCCCATCGATTTGGGGTATGTTATGGGCTCGGGTGGCTGAGGATCGATC
B5: AMX(399)_H8 (ssDNA)
DNA: TCCCTGGTATCGTATCCAAAGGGGTGGTGTGGGTGGCTGAGGATCGATC
B6: AMX(398)_B1 (ssDNA)
DNA: TCCCAATCGAGCCGGGGTTTGTTTGTTCTGGGTGGCTGAGGATCGATC
B7: AMX(398)_C12 (ssDNA)
DNA: TCCCTGCAATCGGTGCTCGAGAGGTTGGGTGGGTGGCTGAGGATCGATC
B8: AMX(398)_D1 (ssDNA)
DNA: TCCCGATTTGAGTTTAGTAGGGTGGGTAGGATGGTGGCTGAGGATCGATC
B9: AMX(398)_E5 (ssDNA)
DNA: TCCCGATCGGACGTGGTGGGTTACTTCTGGGTGGCTGAGGATCGATC
B10: AMX(399)_G9 (ssDNA)
DNA: TCCCGTGAGAGCTGGGGTGTTTATATGGGTCGGGTGGCTGAGGATCGATC
B11: AMX(398)_E1 (ssDNA)
DNA: TCCCATCGATCCGGGGTATTCTTATTTCTGGGTGGCTGAGGATCGATC
B12: AMX(399)_G2 (ssDNA)
DNA: TCCCATCGTCTGTGGTATAGGAACTTCTGGGTGGCTGAGGATCGATC
B13: AMX(398)_C11 (ssDNA)
DNA: TCCTGTCGATCGGTACGTTTTCGTTTCTGGGTGGCTGAGGATCGATC
B14: AMX(398)_D5 (ssDNA)
DNA: TCCCAGCGGTCCTAATGGGTAGTGTTGGTTTGGGTGGCTGAGGATCGATC
B15: AMX(398)_A12 (ssDNA)
DNA: TCCCTGGAGATCCGGGGTAGTATACTGGTTTGGGTGGCTGAGGATCGATC
B16: AMX(398)_C2 (ssDNA)
DNA: TCCCAAGGATCCGGGGTAGTTAGTGGCTGAGGTGGCTGAGGATCGATC
B17: AMX(398)_C1 (ssDNA)
DNA: TCCCAACGATCTGTGGTTTTTTTGTTCTGGGTGGCTGAGGATCGATC
B18: AMX(398)_C6 (ssDNA)
DNA: TCCCATGATTGGCCGGGGTGTCTTTTGGGTCGGGTGGCTGAGGATCGATC
B19: AMX(398)_A7 (ssDNA)
DNA: TCCCTATCGAGCTGTGGTAGTATTCTGGTTTGGGTGGCTGAGGATCGATC
B20: AMX(399)_G11 (ssDNA)
DNA: TCCCCATCGATCCTGGTCTCTTTTGTTCTGGGTGGCTGAGGATCGATC
B21: AMX(398)_D3 (ssDNA)
DNA: TCCCATGATCGGGTCGGTATTTGTTGGTCAGGGTGGCTGAGGATCGATC
B22: AMX(398)_B10 (ssDNA)
DNA: TCCCTCGATCTTGGGGTACTATAGTGGTGTGGGTGGCTGAGGATCGATC
B23: AMX(399)_H6 (ssDNA)
DNA: TCCCGGAGATCTGAGGTGTTTTATTGGTTTGGGTGGCTGAGGATCGATC
B24: AMX(399)_G8 (ssDNA)
DNA: TCCCATCGATCTGTGGTGGTTTTGTGGCTTGGGTGGCTGAGGATCGATC
B25: AMX(398)_A2 (ssDNA)
DNA: B24 DNA with C7T, C28T
B26: AMX(398)_E6 (ssDNA)
DNA: TCCCATCGAGACGGGGTGTCTTTTGTGGCTTGGGTGGCTGAGGATCGATC
B27: AMX(398)_A9 (ssDNA)
DNA: TCCCGTCGAGCCGGGGTATGATTATGGGTGGGGTGGCTGAGGATCGATC
B28: AMX(399)_F11 (ssDNA)
DNA: TCCCTATGGATTCGGGGTACGTTAGTTCTGGGTGGCTGAGGATCGATC
B29: AMX(399)_G12 (ssDNA)
DNA: TCCCGGATCCTCGTGGGTATTGTTGGGTTGGGTGGCTGAGGATCGATC
B30: AMX(399)_G6 (ssDNA)
DNA: TCCCATCGATCAGTGGTGGCTTGGCTGGTTTGGGTGGCTGAGGATCGATC
B31: AMX(398)_B5 (ssDNA)
DNA: TCCCTGATCCTTAGGCTAGGTTGGGTGGGGTGGTGGCTGAGGATCGATC
B32: AMX(399)_G3 (ssDNA)
DNA: TCCCATCGAACCTCGAGGGTATTGTTGGCTTGGGTGGCTGAGGATCGATC
B33: AMX(399)_H1 (ssDNA)
DNA: B32 DNA with C29T
B34: AMX(398)_A8 (ssDNA)
DNA: TCCCATCGGTCCGGGGTAATTTACTGGGTCGGGTGGCTGAGGATCGATC
B35: AMX(399)_H7 (ssDNA)
DNA: TCCCGGTTGTCGATTCTGGTATTGTTGGGCTGGGTGGCTGAGGATCGATC
B36: AMX(398)_B3 (ssDNA)
DNA: TCCCAGATGTGATCCGTATCCTGGTTTGGTTGGGTGGCTGAGGATCGATC
B37: AMX(398)_B12 (ssDNA)
DNA: TCCCGATTATCCGTTGGTATTGTTGGTCTGGGTGGCTGAGGATCGATC
B38: AMX(398)_C9 (ssDNA)
DNA: TCCCGATCGTTTCGTGGGGTAGTGTTGGTTGGGGTGGCTGAGGATCGATC

How the values were obtained:
prothrombin = prothrombin (Homo sapiens, UniProt P00734 P00734:44-622); assay: filter; 50 nM prothrombin; conditions: tags: Athens Research
Method: Dot blot binding assays were performed throughout the selections to monitor the protein binding affinity of the pools. Trace ³²P-labeled RNA was combined with a dilution series of human Thrombin (1 nM-1000 nM) and incubated at room temperature for 30 minutes in 1×DPBS (w/ Ca²⁺ and Mg²⁺) (Gibco, Catalog #14040, Invitrogen, Carlsbad, Calif.) plus 0.1 mg/ml BSA in a final volume of 30 μl. The binding reactions were analyzed by nitrocellulose filtration using a Minifold I dot-blot, 96-well vacuum filtration manifold (Schleicher & Schuell, Keene, N.H.). A three-layer filtration medium was used, consisting (from top to bottom) of Protran nitrocellulose (Schleicher & Schuell, Keene, N.H.), Hybond-P nylon (Amersham Biosciences, Piscataway, N.J.) and GB002 gel blot paper (Schleicher & Schuell, Keene, N.H.). RNA that is bound to protein is captured on the nitrocellulose filter, whereas the non-protein bound RNA is captured on the nylon filter. The gel blot paper was included simply as a supporting medium for the other filters. Following filtration, the filter layers were separated, dried and exposed on a phosphor screen (Amersham Biosciences, Piscataway, N.J.) and quantified using a Storm 860 Phosphorimager® blot imaging system (Amersham Biosciences, Piscataway, N.J.).
Based on pool binding monitored throughout the selections as described above, Round 9 Pools from both Selection #2 and #3 were also cloned using a TOPO TA Cloning kit (Invitrogen, Carlsbad, Calif.) according to manufacturer's instructions, and sequenced. Of the 136 sequences obtained from Round 9 of both selections, 130 unique sequences were selected for assaying in a single-point dot blot screen against thrombin and prothrombin to test for selective binding to thrombin. Clones were ordered from IDT (Coralville, Iowa) at 25 μmole synthesis scale. Clone transcripts were 5′ end labeled with γ̅³²P ATP and spin purified with Centrisep columns (Princeton Separations, Adelphia, N.J.) to remove excess label. Trace amounts of labeled clone were incubated with +/−10 nM Thrombin (or +/−50 nM prothrombin) and 0.1 mg/ml BSA in a total volume of 30 μl 1×DPBS (w/ Ca²⁺ and Mg²⁺) (Gibco, Catalog #14040, Invitrogen, Carlsbad, Calif.) for 30 minutes. Post incubation, the binding reaction applied the dot-blot binding assay apparatus previously described.

[1] = molecular target: thrombin (alpha-thrombin) (Homo sapiens, UniProt P00734;P00734 P00734:315-363,P00734:364-622); assay: filter; 10 nM thrombin

Row | Binder | binding signal (prothrombin) [% bound] | binding signal [1] [% bound]
1 | B1 | 18.9 | 23.2
2 | B2 | 22.1 | 21.3
3 | B3 | 34.6 | 35
4 | B4 | 31.3 | 31.1
5 | B5 | 14.3 | 23.3
6 | B6 | 32.7 | 31.3
7 | B7 | 15.5 | 22.8
8 | B8 | 11.8 | 20.7
9 | B9 | 25.4 | 25.6
10 | B10 | 22.5 | 21.3
11 | B11 | 20.9 | 23.4
12 | B12 | 7.28 | 18.8
13 | B13 | 36.7 | 35.1
14 | B14 | 12.9 | 12
15 | B15 | 37.5 | 35.4
16 | B16 | 0.66 | 0.2
17 | B17 | 37 | 35.8
18 | B18 | 11.6 | 28
19 | B19 | 25.4 | 26.5

Row | Binder | binding signal (prothrombin) [% bound] | binding signal [1] [% bound]
20 | B20 | 11.8 | 12.8
21 | B21 | 20.8 | 20
22 | B22 | 25.7 | 26.8
23 | B23 | 6.32 | 8.48
24 | B24 | 25.9 | 27.6
25 | B25 | 28.4 | 26.7
26 | B26 | 30.3 | 29.5
27 | B27 | 29.7 | 28.3
28 | B28 | 35.7 | 35.1
29 | B29 | 41.1 | 40.6
30 | B30 | 38.6 | 39.7
31 | B31 | 8.27 | 12.5
32 | B32 | 22.6 | 20.8
33 | B33 | 20.4 | 21.2
34 | B34 | 43.9 | 40
35 | B35 | 36.1 | 38.1
36 | B36 | 16.5 | 17.5
37 | B37 | 20.2 | 20.1
38 | B38 | 20.7 | 20.7
